The text below walks through data of article PMC6241527 (Science (New York, N.Y.), 2018).

In experiment [1] the target is T1, influenza B hemagglutinin (B/Brisbane/60/08) (influenza B virus (B/Brisbane/60/08), N-linked glycans at N301 and N330 (HA1)).
T1 chain 1: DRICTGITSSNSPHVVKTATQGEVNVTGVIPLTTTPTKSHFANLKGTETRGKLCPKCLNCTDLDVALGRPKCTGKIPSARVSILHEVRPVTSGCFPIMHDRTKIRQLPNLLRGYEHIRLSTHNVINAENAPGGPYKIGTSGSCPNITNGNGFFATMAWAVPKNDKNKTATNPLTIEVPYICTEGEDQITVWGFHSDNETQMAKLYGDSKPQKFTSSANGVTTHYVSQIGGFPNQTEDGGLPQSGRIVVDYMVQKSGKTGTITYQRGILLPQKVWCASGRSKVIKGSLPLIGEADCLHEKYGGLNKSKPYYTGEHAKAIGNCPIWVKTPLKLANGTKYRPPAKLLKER
T1 chain 2: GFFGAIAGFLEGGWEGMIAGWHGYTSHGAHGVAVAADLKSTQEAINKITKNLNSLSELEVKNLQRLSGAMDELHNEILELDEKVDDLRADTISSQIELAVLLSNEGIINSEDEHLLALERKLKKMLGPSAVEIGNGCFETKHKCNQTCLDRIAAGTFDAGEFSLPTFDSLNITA
Nature of the experiment: crystal structure.

Experiment [2] addresses T2, H1 hemagglutinin (A/Brisbane/59/07) (Influenza A virus …).
In experiment [3] the target is T2, H1 hemagglutinin (A/Brisbane/59/07). Nature of the experiment: cell-based or functional assay.
The target of experiment [4] is T3, H1 hemagglutinin (A/Solomon Islands/3/06) (influenza A virus (A/Solomon …)).
T3 chain 1: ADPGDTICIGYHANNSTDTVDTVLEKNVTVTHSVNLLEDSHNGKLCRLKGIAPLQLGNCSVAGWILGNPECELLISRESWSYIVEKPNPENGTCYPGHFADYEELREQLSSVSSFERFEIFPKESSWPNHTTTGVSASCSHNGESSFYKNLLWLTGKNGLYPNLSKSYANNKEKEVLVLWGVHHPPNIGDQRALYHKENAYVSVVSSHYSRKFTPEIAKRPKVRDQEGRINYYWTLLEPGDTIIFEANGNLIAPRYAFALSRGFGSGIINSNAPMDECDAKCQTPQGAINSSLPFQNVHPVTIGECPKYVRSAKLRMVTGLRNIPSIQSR
T3 chain 2: not shown
Nature of the experiment: crystal structure.

B1: single-domain antibody SD83 (VHH)
VHH: EVQLVESGGGLVQPGGSLRLSCAATGFTLENKAIGWFRQTPGSEREGVLCISKSGSWTYYTDSMRGRFTISRDNAENTVYLQMDSLKPEDTAVYYCATTTAGGGLCWDGTTFSRLASSWGQGTQVTVSS
In the case of B1, the “stoichiometry N” value in experiment [1] was found to be 3 sdAbs per HA trimer.

B2: single-domain antibody SD36 (VHH)
VHH: EVQLVESGGGLVQAGGSLKLSCAASGRTYAMGWFRQAPGKEREFVAHINALGTRTYYSDSVKGRFTISRDNAKNTEYLEMNNLKPEDTAVYYCTAQGQWRAAPVAVAAEYEFWGQGTQVTVSS
In turn, B2 gave a Kd in experiment [2] of 290 nM. Also, the “in vitro neutralisation of the corresponding virus (A/Brisbane/59/07), IC50” value in experiment [3] was above 1000 nM.

B3: single-domain antibody SD38 (VHH)
VHH: EVQLVESGGGLVQPGGSLRLSCAVSISIFDIYAMDWYRQAPGKQRDLVATSFRDGSTNYADSVKGRFTISRDNAKNTLYLQMNSLKPEDTAVYLCHVSLYRDPLGVAGGMGVYWGKGALVTVSS
Regarding B3, the “stoichiometry N” value in experiment [4] was determined as 3 sdAbs per HA trimer.
